# Results taken from patent publication US20130196320A1, “METHOD FOR IMPROVING CLEAVAGE OF DNA BY ENDONUCLEASE SENSITIVE TO METHYLATION” (CELLECTIS, priority 2010, published 2013).
# T1: I-CreI wild type (Chlamydomonas reinhardtii, UniProt P05725 SEQ:1-163)
# T1 sequence: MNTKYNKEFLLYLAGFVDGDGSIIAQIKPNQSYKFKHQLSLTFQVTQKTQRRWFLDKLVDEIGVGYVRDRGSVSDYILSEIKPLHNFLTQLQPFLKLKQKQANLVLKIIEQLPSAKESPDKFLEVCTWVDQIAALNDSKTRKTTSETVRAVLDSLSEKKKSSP
# T2: XPC4 meganuclease (I-CreI-derived) (Artificial Sequence)
# T2 chain: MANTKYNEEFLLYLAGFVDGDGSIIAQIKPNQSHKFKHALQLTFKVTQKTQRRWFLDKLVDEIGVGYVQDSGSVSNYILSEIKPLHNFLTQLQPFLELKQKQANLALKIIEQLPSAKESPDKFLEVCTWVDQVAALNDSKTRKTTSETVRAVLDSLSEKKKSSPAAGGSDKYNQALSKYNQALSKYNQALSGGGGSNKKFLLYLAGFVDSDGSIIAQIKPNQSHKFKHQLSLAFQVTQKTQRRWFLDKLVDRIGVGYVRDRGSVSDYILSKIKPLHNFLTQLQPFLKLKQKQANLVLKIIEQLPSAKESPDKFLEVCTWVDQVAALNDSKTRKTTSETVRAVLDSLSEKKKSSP
# T3: ADCY9 meganuclease (I-CreI-derived) (Artificial Sequence)
# T3 chain: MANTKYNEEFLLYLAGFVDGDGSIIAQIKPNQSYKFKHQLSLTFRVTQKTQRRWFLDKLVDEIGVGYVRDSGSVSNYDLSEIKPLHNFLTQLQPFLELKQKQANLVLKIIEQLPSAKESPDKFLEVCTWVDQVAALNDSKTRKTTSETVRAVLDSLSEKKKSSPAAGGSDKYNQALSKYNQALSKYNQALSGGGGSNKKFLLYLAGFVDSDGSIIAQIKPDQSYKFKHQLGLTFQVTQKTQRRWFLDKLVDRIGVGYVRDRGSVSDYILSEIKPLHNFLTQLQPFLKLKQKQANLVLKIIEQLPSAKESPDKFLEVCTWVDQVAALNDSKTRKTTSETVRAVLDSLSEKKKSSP
# T4: I-CreI D75N (UniProt P05725 SEQ:1-167)
# T4 chain: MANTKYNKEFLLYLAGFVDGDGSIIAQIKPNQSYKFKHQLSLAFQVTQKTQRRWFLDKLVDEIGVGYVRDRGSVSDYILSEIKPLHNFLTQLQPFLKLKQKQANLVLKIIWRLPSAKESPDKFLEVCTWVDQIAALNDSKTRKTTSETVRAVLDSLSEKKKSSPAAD
# Assays:
# I-CreI wild type [1] = biological target: T1, I-CreI wild type; test: FP; 10 mM Tris pH8, 400 mM NaCl, 10 mM CaCl2, 10 mM DTT, 25 C; details: tags: C-terminal 6xHis, E. coli BL21; chain copies: 2 (inferred); label: 5' fluorescein on forward (a) strand
# Experimental: (§1) FIG. 4: Spectrofluorimetric titration of fluorescein-labeled C1234 by I-Cre I wild type. 25 nM of C1234 duplex was incubated with increasing concentrations of I-Cre I [from 0 to 400 nM, only 0-80 nM shown] in binding buffer (10 mM Tris-HCl, 400 mM NaCl, 10 mM CaCl₂, 10 mM DTT, pH8) at 25° C. After 30 minutes incubation, the fluorescence anisotropy of the mixture was recorded with a Pherastar Plus (BMG Labtech) operating in fluorescence polarization end point mode with excitation and emission wavelengths set to 495 and 520 nm respectively. Normalized fluorescence anisotropy is plotted as a function of active I-Cre I concentration. Apparent dissociation constant were determined by fitting raw data by an hyperbolic function (Aₓ=(A_{∞}*[Meganuclease])/(Kd+[Meganuclease]) with Aₓ, the fluorescence anisotropy value obtained at a given meganuclease concentration, A_{∞}, the fluorescence anisotropy value obtained at saturating concentration of meganuclease and Kd the dissociation constant of the equilibrium studied).
# (§2) Fluorescein labeled C1234 oligonucleotides were synthesized and HPLC-purified by Eurogentec. […] C 1234 duplex and fluorescein final concentrations were assessed by spectrophotometry using their respective extinction coefficients ε₂₆₀ₙₘ=62900 M⁻¹ cm⁻¹ and ε₄₉₅ₙₘ=83000 M⁻¹ cm⁻¹. […]
# [2] = biological target: T2, XPC4 meganuclease (I-CreI-derived); test: FP; 10 mM CaCl2, 150 mM NaCl, pH8, 25 C; not significantly different from unmethylated
# [3] = biological target: T3, ADCY9 meganuclease (I-CreI-derived); test: FP; apparent Kd, sigmoidal binding; 10 mM CaCl2, 150 mM NaCl, pH8, 25 C
# I-CreI wild type [4] = biological target: T1, I-CreI wild type; test: FP; 400 mM NaCl, 10 mM CaCl2, pH8, 25 C; no saturation; details: tags: C-terminal 6xHis, E. coli BL21; chain copies: 2 (inferred); label: 5' fluorescein on forward strand
# Experimental: as §1, §2
# I-CreI D75N = biological target: T4, I-CreI D75N; test: cleavage_in_vitro; relative to unmethylated C1221; details: tags: C-terminal 6xHis, E. coli BL21; chain copies: 2 (inferred)
# Experimental: FIG. 3: In vitro cleavage of unmethylated or methylated C1221 by I-CreI D75N. 50 nM C1221 containing either 0, 1, 2 or 3 methylated CG was incubated with increasing concentrations of I-CreI D75N (0 to 2 μM) in reaction buffer (10 mM Tris-HCl, 150 mM NaCl, 10 mM MgCl₂, pH8) for an hour at 37° C. The reaction was stopped and cleaved and uncleaved C1221 (top and bottom panel respectively) were quantify and plotted as function of I-CreI D75N concentration.
# To investigate the influence of C1221 methylation on the nuclease activity of I-CreI, an in vitro cleavage assay with either unmethylated or fully methylated C1221 duplex (SEQ ID NOs: 4-5 and 12-13 respectively) was performed. A constant amount of C1221 duplex (50 nM) was incubated with increasing concentration of I-CreI (0 to 2 μM) in a total volume of 25 μL of reaction buffer (10 mM Tris-HCl, 150 mM NaCl, 10 mM MgCl₂, pH8). Cleavage reaction was allowed to proceed 1 hour at 37° C. and then stopped by addition of 5 μL of 6× stop buffer (45% glycerol, 95 mM EDTA, 1.5% (w/v) SDS, 1.5 mg/mL proteinase K and 0.048% (w/v) bromophenol blue) followed by an hour incubation at 37° C. Cleaved and uncleaved DNA products were separated by PAGE using a TGX Any kD precast gel (Bio-Rad), stained with SYBR Green and then quantified using Quantity One software (Bio-Rad).
# To investigate the influence of C1221 methylation on the nuclease activity of I-CreI D75N, in vitro cleavage assay with C1221 duplex containing either 0, 1, 2 or 3 methylated CG (SEQ ID NOs: 4-5, 6-7, 8-9, 10-11 respectively) was performed, according to the procedure described for I-CreI wild type.
# I-CreI wild type [5] = biological target: T1, I-CreI wild type; test: FP; 400 mM NaCl, 10 mM CaCl2, pH8, 25 C; details: tags: C-terminal 6xHis, E. coli BL21; chain copies: 2 (inferred); label: 5' fluorescein on forward strand
# Experimental: as §1
# Fluorescein labeled C1234 oligonucleotides were synthesized and HPLC-purified by Eurogentec. To prepare C 1234 duplex corresponding to I-Cre I double strand DNA wild type target, C1234 forward (SEQ ID NO: 31, “a” strand below) labeled with Fluorescein on its 5′ end was mixed with 1 equivalent of C1234_reverse (SEQ ID NO: 32, “b” strand below) in 100 mM Tris-HCl, 50 mM EDTA, 150 mM NaCl, pH8. The mixture was heated to 95° C. for 2 min and then cooled down to 25° C. over 1 hour. C1234 duplex was eventually purified by anion exchange chromatography using a miniQ PE column (GE healthcare) pre-equilibrated with buffer A (20 mM Tris-HCl, pH7.4). Single stranded oligonucleotides and other contaminants were first discarded using a 0 to 360 mM NaCl step gradient and elution of pure C1234 duplex was performed with a 360-1000 mM NaCl linear gradient (5 column volumes). C 1234 duplex and fluorescein final concentrations were assessed by spectrophotometry using their respective extinction coefficients ε₂₆₀ₙₘ=62900 M⁻¹ cm⁻¹ and ε₄₉₅ₙₘ=83000 M⁻¹ cm⁻¹. […]
# [6] = biological target: T3, ADCY9 meganuclease (I-CreI-derived); test: FP; 10 mM CaCl2, 150 mM NaCl, pH8, 25 C
# [7] = biological target: T2, XPC4 meganuclease (I-CreI-derived); test: FP; 10 mM CaCl2, 150 mM NaCl, pH8, 25 C
binder,measurement,setting,value
C1234 (dsDNA) DNA 1: TCAAAACGTCGTGAGACAGTTTGG DNA 2: CCAAACTGTCTCACGACGTTTTGA,Kd,I-CreI wild type [1],≤ 2.5 nM
"XPC4.1_Me -11a/-10b & +10a/+11b (dsDNA, 5mC at -11a, -10b, +10a, +11b) DNA 1: TCGAGATGTCACACAGAGGTACGA DNA 2: TCGTACCTCTGTGTGACATCTCGA",Kd,[2],127 nM
"ADCY9.1_Me -3a/-2b (dsDNA, 5mC at -3a, -2b) DNA 1: CCCAGATGTCGTACAGCAGCTTGG DNA 2: CCAAGCTGCTGTACGACATCTGGG",Kd,[3],431 nM
"C1234_Me full (dsDNA, 5mC at -6a, -3a, -5b, -2b) DNA 1: TCAAAACGTCGTGAGACAGTTTGG DNA 2: CCAAACTGTCTCACGACGTTTTGA",Kd,I-CreI wild type [4],> 1000 nM
"C1234_Me-5b/-2b (dsDNA, 5mC at -5b, -2b) DNA 1: TCAAAACGTCGTGAGACAGTTTGG DNA 2: CCAAACTGTCTCACGACGTTTTGA",Kd,I-CreI wild type [4],> 1000 nM
"C1221_1Me (dsDNA, 5mC at 1 CpG on both strands) DNA 1: GGGGTCAAAACGTCGTACGACGTTTTGAGGGG DNA 2: CCCCTCAAAACGTCGTACGACGTTTTGACCCC",activity,I-CreI D75N,~3 fold increase of C50
"C1221_3Me (dsDNA, 5mC at 3 CpG on both strands) DNA 1: GGGGTCAAAACGTCGTACGACGTTTTGAGGGG DNA 2: CCCCTCAAAACGTCGTACGACGTTTTGACCCC",activity,I-CreI D75N,> 10 fold increase of C50
"C1221_2Me (dsDNA, 5mC at 2 CpG on both strands) DNA 1: GGGGTCAAAACGTCGTACGACGTTTTGAGGGG DNA 2: CCCCTCAAAACGTCGTACGACGTTTTGACCCC",activity,I-CreI D75N,> 10 fold increase of C50
"C1234_Me-2b (dsDNA, 5mC at -2b) DNA 1: TCAAAACGTCGTGAGACAGTTTGG DNA 2: CCAAACTGTCTCACGACGTTTTGA",Kd,I-CreI wild type [5],40.8 nM
"C1234_Me-6a/-3a (dsDNA, 5mC at -6a, -3a) DNA 1: TCAAAACGTCGTGAGACAGTTTGG DNA 2: CCAAACTGTCTCACGACGTTTTGA",Kd,I-CreI wild type [5],≤ 2.5 nM
ADCY9.1 (dsDNA) DNA 1: CCCAGATGTCGTACAGCAGCTTGG DNA 2: CCAAGCTGCTGTACGACATCTGGG,Kd,[6],190 nM
"C1234_Me-5b (dsDNA, 5mC at -5b) DNA 1: TCAAAACGTCGTGAGACAGTTTGG DNA 2: CCAAACTGTCTCACGACGTTTTGA",Kd,I-CreI wild type [5],24 nM
XPC4.1 (dsDNA) DNA 1: TCGAGATGTCACACAGAGGTACGA DNA 2: TCGTACCTCTGTGTGACATCTCGA,Kd,[7],108 nM
